Here are results for 7 molecules from patent US12215162B2, “BAFF-R targeted chimeric antigen receptor-modified T-cells and uses thereof” (CITY OF HOPE, priority 2016, dated 2025).

The target of the assay is T1, recombinant extracellular domain of human BAFF-R (Homo sapiens, UniProt Q96RJ3).
T1 construct: The antigen was commercial, recombinant extracellular domain of human BAFF-R; purchased
The assay can be described thus: Biacore analysis of binding affinity of humanized BAFF-R antibody variants. An excerpt:
The chimeric antibody, clone 90, was humanized while retaining its binding specificity and cytotoxic effects. Through computational analysis of the CDRs and predicted structure, three variants of the heavy and three variants of the light chain were produced with varying degrees of likeness to human antibodies. A total of nine combinational variants was constructed from the humanized heavy and light chains.
The chimeric anti-BAFF-R antibody C90 was humanized with several variants. The humanization process took into consideration and analysis of the variable region and specifically the CDRs of the chimeric antibody. From there, three variants for each heavy and light chain was developed with varying degrees of human-likeness ranging from 1 the most human to 3 the most conservative to the chimeric. The variants were combined to produce 9 variants. Biacore analysis was performed on each variant as well as the chimeric parental C90 to determine their equilibrium dissociation constant KD. The antigen was commercial, recombinant extracellular domain of human BAFF-R.
For orientation: In SPR one partner is held on a chip, and binding of the other changes the refractive index at the surface.

B1: Humanized HC1 + LC2: humanized C90 variant, heavy chain variant 1 with light chain variant 2 (antibody, V domains shown)
VH: QVQLQESGPGLVKPSQTLSLTCTVSGDSITSGYWNWIRQHPGKGLEYIGYISYSGSTYYNPSLKSRVTISRDTSKNQFSLKLSSVTAADTAVYYCASPNYPFYAMDYWGQGTLVTVSS
VL: DIVLTQSPATLSLSPGERATLSCRASESVDNYGISFMNWFQQKPGQAPRLLIYAASNRATGIPARFSGSGSGTDFTLTISSLEPEDFAVYYCQQSKEVPWTFGGGTKVEIKRTV
What is called kon is the second-order rate constant of association. For B1, the kdis came to 0.0023 s⁻¹ and the kon worked out at 620000 M⁻¹ s⁻¹.

B2: Humanized HC3 + LC1 (antibody, V domains shown)
VH: EVQLQESGPGLVKPSETLSLTCSVSGDSITSGYWNWIRQPPGKGLEYIGYISYSGSTYYNPSLKSRVTISRDTSKNQYSLRLSSVTAADTALYYCASPNYPFYAMDYWGQGTRVTVSS
VL: EIVLTQSPATLSLSPGERATLSCRASESVDNYGISFLNWFQQKPGQAPRLLIYAASNRATGIPARFSGSGSGTDFTLTISSLEPEDFAVYYCQQSKEVPWTFGGGTKVEIKRTV
For B2, the kdis is 0.0031 s⁻¹ and the kon was 820000 M⁻¹ s⁻¹.

B3: Humanized HC3 + LC2: humanized C90 variant, heavy chain variant 3 with light chain variant 2 (antibody, V domains shown)
VH: EVQLQESGPGLVKPSETLSLTCSVSGDSITSGYWNWIRQPPGKGLEYIGYISYSGSTYYNPSLKSRVTISRDTSKNQYSLRLSSVTAADTALYYCASPNYPFYAMDYWGQGTRVTVSS
VL: DIVLTQSPATLSLSPGERATLSCRASESVDNYGISFMNWFQQKPGQAPRLLIYAASNRATGIPARFSGSGSGTDFTLTISSLEPEDFAVYYCQQSKEVPWTFGGGTKVEIKRTV
Consider B3, for which the kdis stood at 0.0037 s⁻¹ and the kon came to 1.2e+06 M⁻¹ s⁻¹.

B4: Humanized HC1 + LC3: humanized C90 variant, heavy chain variant 1 with light chain variant 3 (antibody, V domains shown)
VH: QVQLQESGPGLVKPSQTLSLTCTVSGDSITSGYWNWIRQHPGKGLEYIGYISYSGSTYYNPSLKSRVTISRDTSKNQFSLKLSSVTAADTAVYYCASPNYPFYAMDYWGQGTLVTVSS
VL: DIVMTQSPSSLSASVGDRVTITCRASESVDNYGISFMNWFQQKPGKAPKLLIYAASNLGSGVPSRFSGSGSGTDFTLTISSLQPEDFATYYCQQSKEVPWTFGQGTKVEIKRTV
For the molecule B4, the kdis was found to be 0.0021 s⁻¹ and the kon was found to be 410000 M⁻¹ s⁻¹.

B5: Humanized HC1 + LC1 (antibody, V domains shown)
VH: QVQLQESGPGLVKPSQTLSLTCTVSGDSITSGYWNWIRQHPGKGLEYIGYISYSGSTYYNPSLKSRVTISRDTSKNQFSLKLSSVTAADTAVYYCASPNYPFYAMDYWGQGTLVTVSS
VL: EIVLTQSPATLSLSPGERATLSCRASESVDNYGISFLNWFQQKPGQAPRLLIYAASNRATGIPARFSGSGSGTDFTLTISSLEPEDFAVYYCQQSKEVPWTFGGGTKVEIKRTV
B5: the kdis was determined as 0.0024 s⁻¹ and the kon stood at 610000 M⁻¹ s⁻¹.

B6: Humanized HC2 + LC1 (antibody, V domains shown)
VH: EVQLQESGPGLVKPSQTLSLTCTVSGDSITSGYWNWIRQHPGKGLEYIGYISYSGSTYYNPSLKSRVTISRDTSKNQYSLKLSSVTAADTAVYYCASPNYPFYAMDYWGQGTLVTVSS
VL: EIVLTQSPATLSLSPGERATLSCRASESVDNYGISFLNWFQQKPGQAPRLLIYAASNRATGIPARFSGSGSGTDFTLTISSLEPEDFAVYYCQQSKEVPWTFGGGTKVEIKRTV
Turning to B6, the kdis worked out at 0.002 s⁻¹ and the kon stood at 770000 M⁻¹ s⁻¹.

B7: Humanized HC3 + LC3: humanized C90 variant, heavy chain variant 3 with light chain variant 3 (antibody, V domains shown)
VH: EVQLQESGPGLVKPSETLSLTCSVSGDSITSGYWNWIRQPPGKGLEYIGYISYSGSTYYNPSLKSRVTISRDTSKNQYSLRLSSVTAADTALYYCASPNYPFYAMDYWGQGTRVTVSS
VL: DIVMTQSPSSLSASVGDRVTITCRASESVDNYGISFMNWFQQKPGKAPKLLIYAASNLGSGVPSRFSGSGSGTDFTLTISSLQPEDFATYYCQQSKEVPWTFGQGTKVEIKRTV
B7: the kdis amounted to 0.0023 s⁻¹ and the kon is 680000 M⁻¹ s⁻¹.
